Measured values reported in patent US20220362404A1 (MACQUARIE UNIVERSITY, published 2022).

T1: Flag-tagged cyclin F (Homo sapiens (Human), UniProt P41002 1-786)
T1 construct: Expressed in HEK293 cells and immunoprecipitated with anti-Flag; In the ubiquitylation assay it stood with co-immunoprecipitated Skp1, Cul1 and Rbx1; also called cyclin F-flag; Flag-cyclin F; not shown: C-terminal Flag tag
T1 sequence: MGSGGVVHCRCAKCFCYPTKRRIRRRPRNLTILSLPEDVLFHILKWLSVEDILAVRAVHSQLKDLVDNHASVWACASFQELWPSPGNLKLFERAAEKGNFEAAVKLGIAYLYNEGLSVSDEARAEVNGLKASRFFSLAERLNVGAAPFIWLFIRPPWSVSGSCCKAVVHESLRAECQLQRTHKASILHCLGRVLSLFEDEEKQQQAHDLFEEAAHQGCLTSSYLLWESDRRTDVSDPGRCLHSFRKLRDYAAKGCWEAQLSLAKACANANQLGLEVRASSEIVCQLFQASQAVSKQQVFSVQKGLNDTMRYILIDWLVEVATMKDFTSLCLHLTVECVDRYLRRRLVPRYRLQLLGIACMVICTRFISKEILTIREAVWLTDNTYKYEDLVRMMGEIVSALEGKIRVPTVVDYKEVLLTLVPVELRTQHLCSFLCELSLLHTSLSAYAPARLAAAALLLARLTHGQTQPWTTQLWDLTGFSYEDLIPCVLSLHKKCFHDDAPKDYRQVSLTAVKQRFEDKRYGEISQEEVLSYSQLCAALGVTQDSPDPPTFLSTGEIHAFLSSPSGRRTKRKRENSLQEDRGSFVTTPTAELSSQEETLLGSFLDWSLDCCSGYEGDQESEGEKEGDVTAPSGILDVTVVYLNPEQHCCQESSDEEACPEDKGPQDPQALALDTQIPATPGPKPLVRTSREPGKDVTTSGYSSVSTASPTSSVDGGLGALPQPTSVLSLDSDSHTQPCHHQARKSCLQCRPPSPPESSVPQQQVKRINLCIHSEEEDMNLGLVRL


How the values were obtained:
[1] = molecular target: T1, Flag-tagged cyclin F; test: co-immunoprecipitation with anti-myc from HEK293 lysate, immunoblot
Procedure: A. HEK293 cells were transfected with cyclin F-flag and TDP-43-HA. After 24 hours, cells were lysed and anti-flag antibodies or an IgG control were used to immunoprecipitate Flag-cyclin F. Eluates were analyzed by immunoblotting using antibodies recognizing cyclin F and TDP-43. B. HEK293 cells were transfected with cyclin F-flag and TDP-43-HA. At 24 hours post-transfection, cells were lysed and Flag-cyclin F was immunoprecipitated using antibodies recognizing the Flag tag. Eluates were analyzed by immunoblotting using antibodies recognizing cyclin F and phospho-TDP-43 (S409/410). C. Schematic showing the position of the RxL>AxA mutation within TDP-43. D. Cells were transfected with cyclin F and TDP-43(WT) or TDP-43(RxL>AxA). Cyclin F was immunoprecipitated from cell lysates using antibodies recognizing the Flag tag. Eluates were analyzed using anti-cyclin F and anti-TDP-43. E. Schematic showing the TDP-43 fragments used for immunoprecipitations. […] Eluates were analyzed by immunoblotting using antibodies recognizing cyclin F and myc.
In order to determine whether cyclin F interacts with TDP-43 through the typical RxL motif present in all known cyclin F substrates, constructs expressing wild-type TDP-43 or variant TDP-43 (RxL>AxA) were transfected into HEK293 cells (FIG. 1C). After 24 hours, the cells were lysed and Flag-cyclin F was immunoprecipitated and analyzed for TDP-43 by immunoblotting. […]

[2] = molecular target: T2, recombinant His-tagged TDP-43 (full length) (UniProt Q13148 1-414); test: microscale thermophoresis, labelled His-TDP-43, GST-cyclin domain titrated
T2 construct: In MST it was labelled with RED-tris-NTA dye on the His tag; also called His-TDP-43; recombinant TDP-43; not shown: His tag, printed as His-TDP-43
Procedure: Recombinant His-tagged TDP-43 (a gift from Professor Julie Atkin's laboratory) was diluted to 200 nM in PBS-T buffer (137 mM NaCl, 2.5 mM KCl, 10 mM Na2HPO4, 2 mM KH2PO4, pH 7.4; 0.05% (v/v) Tween-20). The RED-tris-NTA dye was diluted in PBS-T to 100 nM. For labelling, the recombinant protein and diluted dye were mixed in a 1:1 volume ratio and incubated for 30 minutes at room temperature. Recombinant cyclin F-GST was also diluted in PBS-T buffer prior to analysis. Concentrations of cyclin F-GST (cyclin box) ranged from 0-22 μM. Before MST measurements were carried out, samples were centrifuged for 10 minutes at 4° C. at 14,000×g. All MST measurements were performed on a NanoTemper Monolith™NT.115 instrument using standard treated capillaries at room temperature. Final dye concentration of 25 nM yielded the fluorescence intensity of around 300 counts at a LED power of 50%. Accordingly, the MST power range was between 40-60% intensity with a laser-on time of 30 s and a laser-off time of 5 s. All data were analysed by MO Affinity Analysis Software.

binding result [1] | binding result [2] | Binder
no binding | – | Myc-tagged C-terminal fragment of TDP-43 (167-414) (other, UniProt Q13148 167-414, looked up, Over-expressed in HEK293 cells with Flag-cyclin F; also called myc-TDP-43; not shown: myc tag, printed as myc-TDP-43) MIDGRWCDCKLPNSKQSQDEPLRSRKVFVGRCTEDMTEDELREFFSQYGDVMDVFIPKPFRAFAFVTFADDQIAQSLCGEDLIIKGISVHISNAEPKHNSNRQLERSGRFGGNPGGFGNQGGFGNSRGGGAGLGNNQGSNMGGGMNFGAFSINPAMMAAAQAALQSSWGMMGMLASQQNQSGPSGNNQNQGNMQREPNQAFGSGNNSYSGSNSGAAIGWGSASNAGSGSGFNGGFGSSMDSKSSGWGM
– | binds | GST-cyclin domain of cyclin F (aa 302-497) (other, Made in E. coli from pGEX5; also called cyclin box of cyclin F; cyclin F-GST (cyclin box); not shown: glutathione S-transferase (GST) tag of the pGEX5 vector) QKGLNDTMRYILIDWLVEVATMKDFTSLCLHLTVECVDRYLRRRLVPRYRLQLLGIACMVICTRFISKEILTIREAVWLTDNTYKYEDLVRMMGEIVSALEGKIRVPTVVDYKEVLLTLVPVELRTQHLCSFLCELSLLHTSLSAYAPARLAAAALLLARLTHGQTQPWTTQLWDLTGFSYEDLIPCVLSLHKKCF
